Measurements from patent US20030064916A1 (Scripps Research, published 2003).

B1: hu-wt-p53 110-119 (peptide)
peptide: RLGILHSGTA
B2: hu-wt-p53 255-264 (peptide)
peptide: ITLEDSSGNL
B3: hu-wt-p53 117-125 (peptide)
peptide: GTAKSVTCT
B4: p53.65-73 (peptide)
peptide: RMPEAAPPV
notes: also called hu-wt-p53 65-73; hu-p53.65-73
B5: mur-wt-p53 261-269 (peptide)
peptide: LLGRDSFEV
notes: also called mur-p53.261-269
B6: hu-wt-p53 69-79 (peptide)
peptide: AAPPVAPAPAA
B7: hu-wt-p53 210-218 (peptide)
peptide: NTFRHSVVV
B8: hu-wt-p53 69-78 (peptide)
peptide: AAPPVAPAPA
B9: hu-wt-p53 31-39 (peptide)
peptide: VLSPLPSQA
B10: hu-wt-p53 339-247 (peptide)
peptide: EMFRELNEA
B11: hu-wt-p53 73-81 (peptide)
peptide: VAPAPAAPT
B12: p53.25-35 (peptide)
peptide: LLPENNVLSPL
notes: also called hu-wt-p53 25-35; hu-p53.25-35
B13: hu-wt-p53 187-195 (peptide)
peptide: GLAPPQHLI
B14: p53.149-157 (peptide)
peptide: STPPPGTRV
B15: hu-wt-p53 31-40 (peptide)
peptide: VLSPLPSQAM
B16: hu-wt-p53 69-76 (peptide)
peptide: AAPPVAPA
B17: hu-wt-p53 136-144 (peptide)
peptide: QLAKTCPVQ
B18: hu-wt-p53 25-33 (peptide)
peptide: LLPENNVLS
B19: hu-wt-p53 43-52 (peptide)
peptide: LMLSPDDIEQ
B20: hu-wt-p53 146-155 (peptide)
peptide: WVDSTPPPGT
B21: hu-wt-p53 78-86 (peptide)
peptide: AAPTPAAPA
B22: hu-wt-p53 42-50 (peptide)
peptide: DLMLSPDDI
B23: hu-wt-p53 322-330 (peptide)
peptide: PLDGEYFTL
notes: also called hu-p53.322-330
B24: hu-wt-p53 122-130 (peptide)
peptide: VTCTYSPAL
B25: hu-wt-p53 161-169 (peptide)
peptide: AIYKQSQHM
B26: hu-wt-p53 263-272 (peptide)
peptide: NLLGRNSFEV

Target: HLA-A2.1 (human, UniProt A*02:01)
Assay: competition on EA2 cells: test peptide (100 mM [sic]) vs M1 58-66 (1 mM [sic]); % inhibition of CTL clone 12 lysis, E:T 0.3:1

Binder	% inhibition of A2.1-binding of M1 (58-66)
B1	10%
B2	24%
B3	12%
B4	62%
B5	75%
B6	4%
B7	43%
B8	41%
B9	38%
B10	12%
B11	12%
B12	65%
B13	62%
B14	29%
B15	23%
B16	46%
B17	15%
B18	42%
B19	25%
B20	10%
B21	51%
B22	19%
B23	24%
B24	12%
B25	12%
B26	50%
